# B1: H69071.4 (anti-MSLN/CD3ε heterodimeric bispecific antibody) (bispecific antibody)
# chain 1: QVQLQESGPGLVKPSQTLSLTCTVSGGSINNNNYYWTWIRQHPGKGLEWIGYIYYSGSTFYNPSLKSRVTISVDTSKTQFSLKLSSVTAADTAVYYCAREDTMTGLDVWGQGTLVTVSSGGGGSGGGGSDIQMTQSPSSVSASVGDRVTITCRASQGISSWLAWYQQKPGKAPKLLIYAASSLQSGVPSRFSGSGSGAAFTLTISSLQPEDFATYFCQQANSFPLTFAGGTKVDIKRASTKGPSVFPLAPCSRSTSESTAALGCLVKDYFPEPVTVSWNSGALTSGVHTFPAVLQSSGLYSLSSVVTVPSSNFGTQTYTCNVDHKPSNTKVDKTVGGGGSAAAVPRDLEVVAATPTSLLISWDAPHHGVAYYRITYGETGGNSPVQEFTVPGSKSTATISGLKPGVDYTINVYAVLAYPRGYPLSKPISINYRTDYKDDDDKGSSHHHHHH
# chain 2: QVQLVESGGGVVQPGRSLRLSCAASGFTFSSYGMHWVRQAPGKGLEWVAVISYPGNTKYYADSVKGRFTISRDNSKNTLYLQMNSLRAEDTAVYFCARDQKEWRLIFDYWGQGTLVTVSSGGGGSGGGGSDIQMTQSPSSLSASVGDRVTITCRASQSINNYLNWYQQKPGKAPTLLIYAASSLQSGVPSRFSGSRSGTDFTLTISSLQPEDFAAYFCQQTYSNPTFGQGTKVEVKRTVAAPSVFIFPPSDEQLKSGTASVVCLLNNFYPREAKVQWKVDNALQSGNSQESVTEQDSKDSTYSLSSTLTLSKADYEKHKVYACEVTHQGLSSPVTKSFNRGEC
# B2: H69070.4 (anti-MSLN/CD3ε heterodimeric bispecific antibody) (bispecific antibody)
# chain 1: QVQLVESGGGVVQPGRSLRLSCAASGFTFSSYGMHWVRQAPGKGLEWVAVISYPGNTKYYADSVKGRFTISRDNSKNTLYLQMNSLRAEDTAVYFCARDQKEWRLIFDYWGQGTLVTVSSASTKGPQVQLQESGPGLVKPSETLSLTCTVSGGSIISHYWSWIRQPPGKGLEWIGYIYYSGSTNYNPSLKSRVTISVDTSKNQFSLKLTSVTAADTAVYYCARDGWSAFDYWGQGTLVTVSSASTKGPSVFPLAPCSRSTSESTAALGCLVKDYFPEPVTVSWNSGALTSGVHTFPAVLQSSGLYSLSSVVTVPSSNFGTQTYTCNVDHKPSNTKVDKTVGGGGSAAAVPRDLEVVAATPTSLLISWDAPHHGVAYYRITYGETGGNSPVQEFTVPGSKSTATISGLKPGVDYTINVYAVLAYPRGYPLSKPISINYRTDYKDDDDKGSSHHHHHH
# chain 2: DIQMTQSPSSVSASVGDRVTITCRASQGISSWLAWYQQKPGKAPKLLIYAASSLQSGVPSRFSGSGSGAAFTLTISSLQPEDFATYFCQQANSFPLTFAGGTKVDIKRTVAAPDIQMTQSPSSLSASVGDRVTITCRASQGIRNALGWYQQKPGKAPKRLIYAASSLQSGVPSRFSGSGSGTEFTLTISSLQPEDFATYYCLQHNSYPRTFGQGTKVEIRRTVAAPSVFIFPPSDEQLKSGTASVVCLLNNFYPREAKVQWKVDNALQSGNSQESVTEQDSKDSTYSLSSTLTLSKADYEKHKVYACEVTHQGLSSPVTKSFNRGEC
# B3: H71362.2 (anti-MSLN/CD3ε heterodimeric bispecific antibody) (bispecific antibody)
# chain 1: EVQLVESGGGLVKPGVSLRLSCAASGFTFSRYGMNWVRQAPGKGLEWVSSISSSGTYIKYADSVKGRFTISRDNAKNSLNLQMNSLRAEDTAVYYCARDRDRYPLDYWGQGTLVTVSSASTKGPQVQLQESGPGLVKPSETLSLTCTVSGGSIISHYWSWIRQPPGKGLEWIGYIYYSGSTNYNPSLKSRVTISVDTSKNQFSLKLTSVTAADTAVYYCARDGWSAFDYWGQGTLVTVSSASTKGPSVFPLAPCSRSTSESTAALGCLVKDYFPEPVTVSWNSGALTSGVHTFPAVLQSSGLYSLSSVVTVPSSNFGTQTYTCNVDHKPSNTKVDKTVGGGGSAAAVPRDLEVVAATPTSLLISWDAIGLYPYYYRITYGETGGNSPVQEFTVPGSKSTATISGLKPGVDYTITVYAVSGIFGWNNSKPISINYRTGSSDYKDDDDKGSSHHHHHH
# chain 2: SYELTQPPSVSVSPGQTARITCSGDALPKKYAYWYQQKSGQAPVLVIYEATKRPSGIPERFSGSSSGTMATLTLSGAQVEDEADYYCYSTDSTNYHWVFGGGTKLTVLGTVAAPDIQMTQSPSSLSASVGDRVTITCRASQGIRNALGWYQQKPGKAPKRLIYAASSLQSGVPSRFSGSGSGTEFTLTISSLQPEDFATYYCLQHNSYPRTFGQGTKVEIRRTVAAPSVFIFPPSDEQLKSGTASVVCLLNNFYPREAKVQWKVDNALQSGNSQESVTEQDSKDSTYSLSSTLTLSKADYEKHKVYACEVTHQGLSSPVTKSFNRGEC
# B4: P69058.3 (anti-MSLN/CD3ε heterodimeric bispecific antibody) (bispecific antibody)
# chain 1: QVQLQESGPGLVKPSQTLSLTCTVSGGSINNNNYYWTWIRQHPGKGLEWIGYIYYSGSTFYNPSLKSRVTISVDTSKTQFSLKLSSVTAADTAVYYCAREDTMTGLDVWGQGTLVTVSSGGGGSGGGGSSSYELTQPPSVSVSPGQTARITCSGDALPKKYAYWYQQKSGQAPVLVIYEATKRPSGIPERFSGSSSGTMATLTLSGAQVEDEADYYCYSTDSTNYHWVFGGGTKLTVLGASTKGPSVFPLAPCSRSTSESTAALGCLVKDYFPEPVTVSWNSGALTSGVHTFPAVLQSSGLYSLSSVVTVPSSNFGTQTYTCNVDHKPSNTKVDKTVGGGGSAAAVPRDLEVVAATPTSLLISWDAPHHGVAYYRITYGETGGNSPVQEFTVPGSKSTATISGLKPGVDYTINVYAVLAYPRGYPLSKPISINYRTDYKDDDDKGSSHHHHHH
# chain 2: EVQLVESGGGLVKPGVSLRLSCAASGFTFSRYGMNWVRQAPGKGLEWVSSISSSGTYIKYADSVKGRFTISRDNAKNSLNLQMNSLRAEDTAVYYCARDRDRYPLDYWGQGTLVTVSSGGGGSGGGGSDIQMTQSPSSLSASVGDRVTITCRASQSINNYLNWYQQKPGKAPTLLIYAASSLQSGVPSRFSGSRSGTDFTLTISSLQPEDFAAYFCQQTYSNPTFGQGTKVEVKRTVAAPSVFIFPPSDEQLKSGTASVVCLLNNFYPREAKVQWKVDNALQSGNSQESVTEQDSKDSTYSLSSTLTLSKADYEKHKVYACEVTHQGLSSPVTKSFNRGEC
# notes: VH(CD3ε)-linker-VL(MSLN)-CL
# B5: P69059.3 (anti-MSLN/CD3ε heterodimeric bispecific antibody) (bispecific antibody)
# chain 1: SYELTQPPSVSVSPGQTARITCSGDALPKKYAYWYQQKSGQAPVLVIYEATKRPSGIPERFSGSSSGTMATLTLSGAQVEDEADYYCYSTDSTNYHWVFGGGTKLTVLGGGGGSGGGGSQVQLQESGPGLVKPSQTLSLTCTVSGGSINNNNYYWTWIRQHPGKGLEWIGYIYYSGSTFYNPSLKSRVTISVDTSKTQFSLKLSSVTAADTAVYYCAREDTMTGLDVWGQGTTVTVSSASTKGPSVFPLAPCSRSTSESTAALGCLVKDYFPEPVTVSWNSGALTSGVHTFPAVLQSSGLYSLSSVVTVPSSNFGTQTYTCNVDHKPSNTKVDKTVGGGGSAAAVPRDLEVVAATPTSLLISWDAPHHGVAYYRITYGETGGNSPVQEFTVPGSKSTATISGLKPGVDYTINVYAVLAYPRGYPLSKPISINYRTDYKDDDDKGSSHHHHHH
# chain 2: DIQMTQSPSSLSASVGDRVTITCRASQSINNYLNWYQQKPGKAPTLLIYAASSLQSGVPSRFSGSRSGTDFTLTISSLQPEDFAAYFCQQTYSNPTFGQGTKVEVKGGGGSGGGGSEVQLVESGGGLVKPGVSLRLSCAASGFTFSRYSMNWVRQAPGKGLEWVSSISSSGTYIKYADSVKGRFTISRDNAKNSLNLQMNSLRAEDTAVYYCARDRDRYPLDYWGQGTLVTVSSRTVAAPSVFIFPPSDEQLKSGTASVVCLLNNFYPREAKVQWKVDNALQSGNSQESVTEQDSKDSTYSLSSTLTLSKADYEKHKVYACEVTHQGLSSPVTKSFNRGEC
# notes: VL(MSLN)-linker-VH(CD3ε)-CL
# B6: P57216.9 (anti-MSLN/CD3ε heterodimeric bispecific antibody) (bispecific antibody)
# chain 1: QVQLQESGPGLVKPSQTLSLTCTVSGGSINNNNYYWTWIRQHPGKGLEWIGYIYYSGSTFYNPSLKSRVTISVDTSKTQFSLKLSSVTAADTAVYYCAREDTMTGLDVWGQGTLVTVSSASTKGPEVQLVESGGGLVKPGVSLRLSCAASGFTFSRYSMNWVRQAPGKGLEWVSSISSSGTYIKYADSVKGRFTISRDNAKNSLNLQMNSLRAEDTAVYYCARDRDRYPLDYWGQGTLVTVSSASTKGPSVFPLAPCSRSTSESTAALGCLVKDYFPEPVTVSWNSGALTSGVHTFPAVLQSSGLYSLSSVVTVPSSNFGTQTYTCNVDHKPSNTKVDKTVGGGGSAAAVPRDLEVVAATPTSLLISWDAPHHGVAYYRITYGETGGNSPVQEFTVPGSKSTATISGLKPGVDYTINVYAVLAYPRGYPLSKPISINYRTDYKDDDDKGSSHHHHHH
# chain 2: DIQMTQSPSSLSASVGDRVTITCRASQSINNYLNWYQQKPGKAPTLLIYAASSLQSGVPSRFSGSRSGTDFTLTISSLQPEDFAAYFCQQTYSNPTFGQGTKVEVKRTVAAPSSYELTQPPSVSVSPGQTARITCSGDALPKKYAYWYQQKSGQAPVLVIYEATKRPSGIPERFSGSSSGTMATLTLSGAQVEDEADYYCYSTDSTNYHWVFGGGTKLTVLGQPKAAPSVTLFPPSSEELQANKATLVCLISDFYPGAVTVAWKADSSPVKAGVETTTPSKQSNNKYAASSYLSLTPEQWKSHRSYSCQVTHEGSTVEKTVAPTECS
# Target: T1, cynomolgus monkey CD3 epsilon chain (CD3ε) (cynomolgus monkey (Macaca fascicularis), UniProt Q95LI5 22-198)
# T1 chain: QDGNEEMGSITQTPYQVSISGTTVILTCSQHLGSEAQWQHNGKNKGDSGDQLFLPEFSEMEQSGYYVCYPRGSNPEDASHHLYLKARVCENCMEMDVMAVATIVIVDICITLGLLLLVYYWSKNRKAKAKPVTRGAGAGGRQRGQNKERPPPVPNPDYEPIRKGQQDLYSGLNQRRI
# Assay: cell-based or functional assay
Binder,"Cyno TDCC EC50 (pM), Ovcar-8 target cells with cynomolgus monkey T cells [pM]","Cyno TDCC Max killing (%), Ovcar-8 target cells with cynomolgus monkey T cells [%]"
B1,3.2,88
B2,3,88

# Target: T1, cynomolgus monkey CD3 epsilon chain …
# Assay: FACS on isolated cynomolgus monkey T cells; FITC anti-human light chain secondary
# Description: (§1) The heterodimeric bispecific antibodies described in Example 1 were produced in HEK 293 cells and were assayed by fluorescence activated cell sorting (FACS) for binding to T cells, which express CD3ε, and to a human ovarian cancer cell line, Ovcar-8, which expresses mesothelin. Briefly, the heterodimeric bispecific antibodies were incubated with about 50,000 Ovcar-8 cells or isolated human or cynomolgus monkey T cells at 4° C. for one hour. The cells were then washed and stained with a fluorescein isothiocyanate (FITC)-conjugated anti-human light chain secondary antibody and analyzed by flow cytometry. The relative binding was represented by the geometric mean of fluorescence intensity.
row,Binder,FACS binding (geometric mean)
1,B1,121 geometric mean of fluorescence intensity
2,B2,127 geometric mean of fluorescence intensity

# Target: T2, human CD3 epsilon chain (CD3ε) (human, UniProt P07766 22-207)
# T2 construct: also called CD3ε on human T cells; human CD3ε
# Assay: FACS on isolated human T cells; FITC anti-human light chain secondary
# Description: as §1
# T2 sequence (P07766 22-207 limits assumed): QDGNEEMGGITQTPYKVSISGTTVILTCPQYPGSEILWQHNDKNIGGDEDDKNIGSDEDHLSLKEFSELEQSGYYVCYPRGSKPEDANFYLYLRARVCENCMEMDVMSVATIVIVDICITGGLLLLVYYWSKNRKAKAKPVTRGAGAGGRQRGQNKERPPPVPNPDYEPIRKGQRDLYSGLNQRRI
row,Binder,FACS binding (geometric mean)
1,B3,354 geometric mean of fluorescence intensity
2,B1,16 geometric mean of fluorescence intensity
3,B2,9 geometric mean of fluorescence intensity
4,B4,290 geometric mean of fluorescence intensity
5,B5,179 geometric mean of fluorescence intensity
6,B6,103 geometric mean of fluorescence intensity
